For the assay, the target named is Mycobacterium tuberculosis dUTPase lacking the mycobacteria-specific loop A133-S137 (MtDUT^Δloop) (Mycobacterium tuberculosis) (UniProt P9WNS5). The assay is described as follows: crystal structure.

The substance “Mycobacterium tuberculosis dUTPase lacking the mycobacteria-specific loop A133-S137 (MtDUT^Δloop) (from UniProt P9WNS5 1-154) (enzyme)” came in with a stoichiometry N (subunits in the oligomer) of 3.

The record behind these values is publication PMC11544220.
